Literature values, collected in publication PMC5979509.

Target: Neuropilin-1 (Homo sapiens) (UniProt O14786)
Experiment: radioligand binding

Chain of UniProt O14786 (O14786 22-923): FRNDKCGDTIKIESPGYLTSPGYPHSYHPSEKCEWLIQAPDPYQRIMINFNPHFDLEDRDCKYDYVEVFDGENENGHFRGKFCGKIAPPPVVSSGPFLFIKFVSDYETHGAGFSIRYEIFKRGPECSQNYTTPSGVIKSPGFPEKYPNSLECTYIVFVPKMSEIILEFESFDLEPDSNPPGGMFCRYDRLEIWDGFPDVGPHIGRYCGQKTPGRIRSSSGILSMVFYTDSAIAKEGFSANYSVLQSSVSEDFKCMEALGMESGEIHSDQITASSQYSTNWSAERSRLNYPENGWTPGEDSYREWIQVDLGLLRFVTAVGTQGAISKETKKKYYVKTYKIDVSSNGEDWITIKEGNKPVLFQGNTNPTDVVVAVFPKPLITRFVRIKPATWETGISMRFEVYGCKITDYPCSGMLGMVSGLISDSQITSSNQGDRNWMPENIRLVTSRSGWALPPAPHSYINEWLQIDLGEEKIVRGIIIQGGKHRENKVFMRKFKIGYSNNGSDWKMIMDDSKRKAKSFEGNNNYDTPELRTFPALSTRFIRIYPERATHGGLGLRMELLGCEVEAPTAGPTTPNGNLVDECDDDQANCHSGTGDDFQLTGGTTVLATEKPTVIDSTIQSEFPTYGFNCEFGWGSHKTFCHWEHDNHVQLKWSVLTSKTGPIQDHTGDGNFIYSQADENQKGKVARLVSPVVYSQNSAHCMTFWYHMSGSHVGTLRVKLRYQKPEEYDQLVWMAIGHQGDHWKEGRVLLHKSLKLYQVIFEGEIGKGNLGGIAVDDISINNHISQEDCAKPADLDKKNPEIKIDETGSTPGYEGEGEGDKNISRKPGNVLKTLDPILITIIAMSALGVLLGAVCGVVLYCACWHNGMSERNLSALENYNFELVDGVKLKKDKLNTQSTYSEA

VEGF165a (from UniProt P15692)
Kd: < 3 nM
